In publication PMC9985635:

Biological target: p65 (UniProt Q04206)
Assay: co-immunoprecipitation, immunoblot
Conditions: reference: wild-type RB; sites S249,T252

With “RB (retinoblastoma protein) (from UniProt P06400) RB S249A/T252A” the “binding against the reference” value was “weaker”.
